Data published in article PMC12233092, “NSUN2-mediated HCV RNA m5C Methylation Facilitates Viral RNA Stability and Replication”.

Columns and labels:
Settings in all cases: protein: recombinant; tags: 6xHis; blunt
E2F1 [1] = molecular target: T1, E2F1 (Homo sapiens? (cDNA amplified, Huh7.5.1 …, UniProt Q01094 1-437)); test: EMSA; probe 10 nM; EMSA binding buffer (Beyotime GS005; composition and pH not given), room temperature, 30 min; 8% TBE agarose gel as stated, on ice, 80 V 1.5 h
E2F1 [2] = molecular target: T1, E2F1; test: EMSA; E2F1 50-400 nM, probe 10 nM; EMSA binding buffer (Beyotime GS005; composition and pH not given), room temperature, 30 min; 8% TBE agarose gel as stated, on ice, 80 V 1.5 h
E2F1 [3] = molecular target: T1, E2F1; test: competition; 10 uM unlabeled competitor vs 10 nM FAM-labeled N1; interaction abrogated; EMSA binding buffer (Beyotime GS005; composition and pH not given), room temperature, 30 min; 8% TBE agarose gel as stated, on ice, 80 V 1.5 h

T1 sequence (Q01094 whole entry): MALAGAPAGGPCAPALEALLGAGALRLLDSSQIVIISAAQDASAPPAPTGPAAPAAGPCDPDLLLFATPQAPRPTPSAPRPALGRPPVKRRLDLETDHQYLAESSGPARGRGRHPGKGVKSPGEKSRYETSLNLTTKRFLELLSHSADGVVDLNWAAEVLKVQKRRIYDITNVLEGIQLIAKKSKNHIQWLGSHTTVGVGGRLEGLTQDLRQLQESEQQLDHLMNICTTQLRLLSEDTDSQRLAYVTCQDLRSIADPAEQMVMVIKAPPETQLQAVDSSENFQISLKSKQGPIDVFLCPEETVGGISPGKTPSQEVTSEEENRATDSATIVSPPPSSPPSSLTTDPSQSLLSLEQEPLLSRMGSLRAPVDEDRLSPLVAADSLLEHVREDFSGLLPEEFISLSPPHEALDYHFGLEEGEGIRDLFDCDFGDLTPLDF

B1: NSUN2-Promoter-Mut-probe (dsDNA)
DNA 1: CTGACGATGGGATTCTTTGACCGCGCAGCCCA
DNA 2: TGGGCTGCGCGGTCAAAGAATCCCATCGTCAG
E2F1 [1]
  binding result: no binding

B2: NSUN2-Promoter-probe (dsDNA)
DNA 1: CTGACGATTGCGCGCGAAGACCGCGCAGCCCA
DNA 2: TGGGCTGCGCGGTCTTCGCGCGCAATCGTCAG
E2F1 [2]
  binding result: binds

B3: NSUN2-Promoter-probe, unlabeled competitor (dsDNA)
DNA 1: B2 DNA 1
DNA 2: B2 DNA 2
E2F1 [3]
  binding result: binds
